For assay [1], the system named is recombinant CH3H from Cosmos sulphureus. As to the kind of experiment: Enzyme assay and kinetic studies of recombinant CH3H with 14C-labelled substrates. It is filed as biochemical. The settings on record: recombinant enzyme from the Cosmos sulphureus cDNA clone expressed in yeast. The source says: Heterologous Expression in Yeast For the heterologous expression, the proofreading amplicons were ligated into the yeast expression vector pYES2.1/V5-His-TOPO® (Invitrogen, UK) and transformed into E. coli TOP10F′ (Invitrogen, UK). The identification of the sense constructs took place with a PCR, for which a gene-specific forward and a plasmid-specific reverse primer was used. Sense constructs were isolated and the correct sequence confirmed by sequencing. Desired plasmids were then transformed into the yeast strain INVSc 1 (Invitrogen, UK). The heterologous expression was performed according to methods known in science, and the prepared proteins were shock-frozen in liquid nitrogen and stored at −80° C. […]
(§1) In order to determine the substrate specificity of the heterologously expressed F3′Hs, the following enzyme tests were performed: 20 μg of the recombinant wild-type CH3H or 50 μg of the hybrid proteins, respectively, were incubated with 0.25 nmol [14C]-marked chalcone or flavonoid substrates in the presence of 10 mM NADPH and 0.1 M KH2PO4—K2HPO4 (with 0.4% Na-ascorbate, pH: 7.5) buffer at 30° C. […] Detection and quantification of radioactivity took place using TLC analysis.
Kinetic data (apparent Michaelis constant (Km) and maximum speed of reaction (Vmax)) were determined using Lineweaver Burk plots.

Assay [2] is described as follows: CH3H activity (hydroxylation of chalcones) of heterologously expressed native, chimeric and mutated enzymes. To be noted: recombinant enzymes expressed in yeast. It is filed as biochemical, Cosmos sulphureus.
Excerpt: (§2) Heterologous Expression in Yeast For the heterologous expression, the proofreading amplicons were ligated into the yeast expression vector pYES2.1/V5-His-TOPO® (Invitrogen, UK) and transformed into E. coli TOP10F′ (Invitrogen, UK). The identification of the sense constructs took place with a PCR, for which a gene-specific forward and a plasmid-specific reverse primer was used. Sense constructs were isolated and the correct sequence confirmed by sequencing. Desired plasmids were then transformed into the yeast strain INVSc 1 (Invitrogen, UK). The heterologous expression was performed according to methods known in science, and the prepared proteins were shock-frozen in liquid nitrogen and stored at −80° C. The determination of the amount of protein in the preparations was performed according to a modified Lowry method.
as §1

The nature of assay [3]: F3′H activity (substrate acceptance) of heterologously expressed native, chimeric and mutated enzymes. It is filed as biochemical, Cosmos sulphureus. The settings on record: recombinant enzymes expressed in yeast.
Excerpt: as §2, §1

We go through 2 molecules from patent US8318918B2, “Chalcone 3-hydroxylase” (Technische Universitat Wien, priority 2009, dated 2012).

In the case of `O=C(/C=C/c1ccc(O)cc1)c1ccc(O)cc1O` [Iso, isoliquiritigenin], the “catalytic CH3H activity with substrate” value in assay [1] was “high catalytic CH3H activities”.

B1: F3′H: recombinant F3′H from Cosmos sulphureus (Accession No.: FJ216426), tested as a comparison (protein, listed as Cosmos sulphureus)
chain: MTILPLLLYPSLTALLLYVLLNLRPRHPNRLPPGPSPWPIVGNLPHLGTTPHHSLAALAAKYGPLMHLRLGFVDVVVAASASVASQFLKTHDANFASRPPNSGAEHMAYNYQDLVFAPYGPRWRMLRKICSVHLFSGKALDDFRHVRQEEVAVLTRALAGAGKSPVKLGQLLSVCTTNALARVMLGRRVFGERDAKADEFKDMVVEMMVLAGEFNIGDFIPALDWLDLQGITKKMKKLHAQFDSFLNTILEEHKTGKGGSSSHRDLSSTLIALKDDADGEGGKLSDIEIKALLLNLFIAGTDTSSSTVEWAIAELIRCPQILRQAHEEMDNVVGRERLVTESDLGKLTFLQAIVKETFRLHPSTPLSLPRIASESCEIDGYFIPKGSTLLVNVWAIARDPKMWTDPLEFRPTRFLPGGEKPNVDVKGNDFEVIPFGAGRRICVGISLGLRMVQLLVATLVQTFDWELANGVLPEKLNMNEAFGLTLQRAEPLIVYPKPRLAPHVYESG
As to B1, the “CH3H activity (hydroxylation of chalcones)” value in assay [2] is listed as “lacking CH3H activity”. Further, the “F3′H activity” value in assay [3] is listed as “confirmed the F3′H activity”.
